Test results taken from US20220204643A1 (published 2022).
Each block holds one binder with its values, some of them ahead of it.

Assays:
FMR1 autosomal homolog 2 = biological target: T1, FMR1 autosomal homolog 2 (human, UniProt P51116 1-673); assay: protein array
T1 construct: on protein array; also called FXR2

[1] = biological target: T2, tripartite motif containing 35, transcript variant 1 (human, UniProt Q9UPQ4 1-493, limits assumed); assay: protein array
T2 construct: on protein array; also called TRIM35
T2 sequence: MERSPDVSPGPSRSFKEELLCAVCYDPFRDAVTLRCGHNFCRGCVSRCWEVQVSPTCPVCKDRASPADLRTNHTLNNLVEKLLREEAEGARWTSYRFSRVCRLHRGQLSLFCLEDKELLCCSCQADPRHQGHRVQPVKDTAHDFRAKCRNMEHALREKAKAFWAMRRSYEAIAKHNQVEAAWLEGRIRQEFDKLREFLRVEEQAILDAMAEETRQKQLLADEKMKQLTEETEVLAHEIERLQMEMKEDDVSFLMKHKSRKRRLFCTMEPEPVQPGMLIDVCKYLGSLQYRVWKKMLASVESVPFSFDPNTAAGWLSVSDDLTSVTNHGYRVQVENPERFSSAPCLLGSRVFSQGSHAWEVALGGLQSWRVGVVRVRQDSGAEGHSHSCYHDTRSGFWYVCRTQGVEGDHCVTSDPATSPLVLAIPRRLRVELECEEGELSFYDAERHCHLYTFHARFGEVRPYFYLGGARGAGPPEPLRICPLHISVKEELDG

[2] = biological target: T3, Killer cell lectin like receptor g2 (human, UniProt A4D1S0 1-409); assay: protein array
T3 construct: on protein array; also called KLRG2
T3 sequence: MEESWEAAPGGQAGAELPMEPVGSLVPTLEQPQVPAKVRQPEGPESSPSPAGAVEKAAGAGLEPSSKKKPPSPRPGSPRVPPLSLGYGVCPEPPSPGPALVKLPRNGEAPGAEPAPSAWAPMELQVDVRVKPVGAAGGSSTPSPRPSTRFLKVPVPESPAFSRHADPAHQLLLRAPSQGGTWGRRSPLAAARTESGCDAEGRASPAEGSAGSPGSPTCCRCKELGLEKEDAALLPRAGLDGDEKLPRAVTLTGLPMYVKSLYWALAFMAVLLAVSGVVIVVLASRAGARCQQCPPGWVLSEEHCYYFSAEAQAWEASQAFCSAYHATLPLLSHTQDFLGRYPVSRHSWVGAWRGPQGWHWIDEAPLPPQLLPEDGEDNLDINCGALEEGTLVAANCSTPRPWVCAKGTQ

[3] = biological target: T4, DIX domain containing 1, transcript variant 2 (human, UniProt Q155Q3 220-683)
T4 construct: also called DIXDC1
T4 sequence: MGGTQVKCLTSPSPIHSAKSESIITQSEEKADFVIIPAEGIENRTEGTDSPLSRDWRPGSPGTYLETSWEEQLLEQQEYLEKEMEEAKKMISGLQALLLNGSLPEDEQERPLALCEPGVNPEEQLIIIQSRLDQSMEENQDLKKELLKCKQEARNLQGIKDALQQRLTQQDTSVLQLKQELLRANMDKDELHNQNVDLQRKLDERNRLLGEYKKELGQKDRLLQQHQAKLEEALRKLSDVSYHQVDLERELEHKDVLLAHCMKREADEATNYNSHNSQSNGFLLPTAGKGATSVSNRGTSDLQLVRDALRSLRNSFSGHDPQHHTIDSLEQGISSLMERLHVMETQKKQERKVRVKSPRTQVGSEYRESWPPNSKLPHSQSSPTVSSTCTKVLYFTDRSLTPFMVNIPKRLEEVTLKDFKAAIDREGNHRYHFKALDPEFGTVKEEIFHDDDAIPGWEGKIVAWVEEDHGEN

[4] = biological target: T5, hydroxymethylbilane synthase, transcript variant X3 (human, UniProt P08397 18-361); assay: protein array
T5 construct: on protein array; also called HMBS; IAMBS
T5 sequence: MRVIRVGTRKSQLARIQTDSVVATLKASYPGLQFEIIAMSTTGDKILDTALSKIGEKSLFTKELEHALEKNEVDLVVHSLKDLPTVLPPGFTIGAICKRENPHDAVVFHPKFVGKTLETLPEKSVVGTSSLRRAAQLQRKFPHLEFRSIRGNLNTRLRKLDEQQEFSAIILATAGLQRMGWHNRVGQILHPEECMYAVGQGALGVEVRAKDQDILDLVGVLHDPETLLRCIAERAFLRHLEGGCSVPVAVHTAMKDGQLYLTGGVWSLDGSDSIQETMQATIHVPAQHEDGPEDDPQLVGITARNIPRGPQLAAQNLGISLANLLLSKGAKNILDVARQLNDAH

[5] = biological target: T6, hook microtubule tethering protein 2, transcript variant 2 (human, UniProt Q96ED9 1-719); assay: protein array
T6 construct: on protein array; also called HOOK2
T6 sequence: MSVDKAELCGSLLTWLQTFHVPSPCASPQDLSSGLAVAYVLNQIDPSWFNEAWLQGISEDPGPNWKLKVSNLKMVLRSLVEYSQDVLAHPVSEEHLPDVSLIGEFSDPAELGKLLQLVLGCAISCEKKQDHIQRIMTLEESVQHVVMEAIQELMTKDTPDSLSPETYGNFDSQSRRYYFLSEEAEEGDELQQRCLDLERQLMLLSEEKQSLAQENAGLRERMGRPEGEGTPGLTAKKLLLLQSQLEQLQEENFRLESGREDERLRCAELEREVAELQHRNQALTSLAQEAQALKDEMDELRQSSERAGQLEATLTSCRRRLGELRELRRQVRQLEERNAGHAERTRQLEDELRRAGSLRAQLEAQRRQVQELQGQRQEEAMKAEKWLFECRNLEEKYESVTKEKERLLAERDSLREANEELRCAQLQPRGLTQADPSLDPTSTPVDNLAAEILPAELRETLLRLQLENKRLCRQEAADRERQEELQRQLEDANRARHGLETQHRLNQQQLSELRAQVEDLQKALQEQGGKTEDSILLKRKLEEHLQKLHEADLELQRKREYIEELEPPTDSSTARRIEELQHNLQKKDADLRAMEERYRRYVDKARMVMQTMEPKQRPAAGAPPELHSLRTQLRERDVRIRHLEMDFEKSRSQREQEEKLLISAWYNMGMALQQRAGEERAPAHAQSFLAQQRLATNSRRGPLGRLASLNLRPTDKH

[6] = biological target: T7, RAN binding protein 10, transcript variant 1 (human, UniProt Q6VN20 2-620); assay: protein array
T7 construct: on protein array; also called RANBP10

[7] = biological target: T8, family with sequence similarity 177 member A1, transcript variant 2 (human, UniProt Q8N128 1-213); assay: protein array
T8 construct: on protein array; also called FAM177A1
T8 sequence: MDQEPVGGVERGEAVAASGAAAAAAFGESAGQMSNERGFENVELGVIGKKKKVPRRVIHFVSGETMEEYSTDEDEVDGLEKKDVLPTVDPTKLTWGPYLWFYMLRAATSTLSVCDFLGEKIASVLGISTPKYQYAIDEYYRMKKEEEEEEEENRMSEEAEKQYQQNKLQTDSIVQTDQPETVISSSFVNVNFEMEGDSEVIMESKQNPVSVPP

[8] = biological target: T9, olfactory receptor family 6 subfamily Q member 1 (gene/pseudogene) (human, UniProt Q8NGQ2 1-317); assay: protein array
T9 construct: on protein array; also called OR6Q1
T9 sequence: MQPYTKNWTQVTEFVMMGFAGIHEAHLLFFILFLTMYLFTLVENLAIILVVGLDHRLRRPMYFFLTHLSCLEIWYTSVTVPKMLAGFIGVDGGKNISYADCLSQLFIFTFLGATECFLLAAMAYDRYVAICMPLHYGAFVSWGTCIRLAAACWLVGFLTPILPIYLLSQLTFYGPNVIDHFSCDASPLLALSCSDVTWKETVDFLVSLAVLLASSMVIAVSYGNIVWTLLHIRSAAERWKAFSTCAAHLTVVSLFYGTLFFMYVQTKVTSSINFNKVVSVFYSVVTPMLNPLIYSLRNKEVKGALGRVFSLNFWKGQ

annexin A1 = biological target: T10, annexin A1 (human, UniProt P04083 2-346); assay: protein array, with experimental replicate
T10 construct: on protein array; also called ANXA1
T10 sequence: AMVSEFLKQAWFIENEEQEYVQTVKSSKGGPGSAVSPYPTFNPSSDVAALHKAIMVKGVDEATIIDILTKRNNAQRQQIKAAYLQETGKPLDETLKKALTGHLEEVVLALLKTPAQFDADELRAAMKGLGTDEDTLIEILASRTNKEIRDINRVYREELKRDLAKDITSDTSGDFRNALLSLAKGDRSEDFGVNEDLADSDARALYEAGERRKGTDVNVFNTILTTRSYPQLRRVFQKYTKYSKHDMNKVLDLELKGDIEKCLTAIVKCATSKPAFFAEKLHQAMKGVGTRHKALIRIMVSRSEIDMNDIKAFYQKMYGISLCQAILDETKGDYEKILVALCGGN

[9] = biological target: T11, methyltransferase like 21C (human, UniProt Q5VZV1 1-264); assay: protein array
T11 construct: on protein array; also called METTL21C
T11 sequence (Q5VZV1 whole entry): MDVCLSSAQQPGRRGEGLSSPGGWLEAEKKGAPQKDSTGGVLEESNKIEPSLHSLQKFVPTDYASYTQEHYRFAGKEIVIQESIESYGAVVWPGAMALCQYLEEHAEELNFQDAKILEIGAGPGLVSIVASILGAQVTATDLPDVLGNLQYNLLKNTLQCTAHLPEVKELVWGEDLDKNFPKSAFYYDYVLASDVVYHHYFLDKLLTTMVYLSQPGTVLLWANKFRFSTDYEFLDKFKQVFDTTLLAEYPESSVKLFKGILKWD

T1 sequence (P51116 whole entry Q252H): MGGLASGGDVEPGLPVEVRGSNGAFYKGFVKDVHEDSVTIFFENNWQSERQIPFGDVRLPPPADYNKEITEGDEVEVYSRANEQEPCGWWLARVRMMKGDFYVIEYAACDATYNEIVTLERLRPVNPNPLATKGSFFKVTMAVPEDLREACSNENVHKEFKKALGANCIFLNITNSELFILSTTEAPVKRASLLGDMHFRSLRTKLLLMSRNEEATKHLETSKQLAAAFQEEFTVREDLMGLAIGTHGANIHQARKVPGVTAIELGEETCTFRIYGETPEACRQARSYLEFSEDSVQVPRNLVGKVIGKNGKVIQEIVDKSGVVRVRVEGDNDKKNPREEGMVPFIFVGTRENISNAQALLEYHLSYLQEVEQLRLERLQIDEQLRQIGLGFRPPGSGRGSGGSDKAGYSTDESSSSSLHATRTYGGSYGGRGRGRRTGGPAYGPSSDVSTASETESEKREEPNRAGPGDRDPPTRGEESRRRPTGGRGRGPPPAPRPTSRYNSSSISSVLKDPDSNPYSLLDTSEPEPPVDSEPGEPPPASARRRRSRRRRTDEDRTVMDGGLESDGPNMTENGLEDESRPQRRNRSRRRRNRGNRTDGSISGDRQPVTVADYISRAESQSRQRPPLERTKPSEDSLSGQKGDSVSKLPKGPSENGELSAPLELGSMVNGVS
T7 sequence (Q6VN20 2-620 limits assumed, change not shown): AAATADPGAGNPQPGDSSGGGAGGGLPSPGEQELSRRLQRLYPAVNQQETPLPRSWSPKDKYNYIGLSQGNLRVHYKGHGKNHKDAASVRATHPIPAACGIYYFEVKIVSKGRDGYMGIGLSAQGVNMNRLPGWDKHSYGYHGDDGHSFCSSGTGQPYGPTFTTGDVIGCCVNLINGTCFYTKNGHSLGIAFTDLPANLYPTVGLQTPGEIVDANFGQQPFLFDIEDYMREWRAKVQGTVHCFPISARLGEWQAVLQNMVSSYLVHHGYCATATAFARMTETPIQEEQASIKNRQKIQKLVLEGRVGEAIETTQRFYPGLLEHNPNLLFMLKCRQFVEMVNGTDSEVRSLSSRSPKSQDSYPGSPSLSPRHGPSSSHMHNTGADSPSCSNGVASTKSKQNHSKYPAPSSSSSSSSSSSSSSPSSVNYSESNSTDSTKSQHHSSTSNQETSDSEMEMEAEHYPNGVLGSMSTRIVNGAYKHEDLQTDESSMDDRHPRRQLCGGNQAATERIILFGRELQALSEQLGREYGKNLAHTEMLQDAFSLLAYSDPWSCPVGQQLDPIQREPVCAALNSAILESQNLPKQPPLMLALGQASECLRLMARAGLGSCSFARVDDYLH

binding result (FMR1 autosomal homolog 2): binds
binding result [1]: binds
B1: TLUA1001 (antibody, V domains shown)
VH: PLQLQESGPGLVKPSETLSLTCSVSGGSIRSSAPFWGWIRQPPGKGLEWIGNIYYNGDTSYSPSLENRVTLFVDTSKNQFSLNLTSVTAADTAVYYCGRIMTPSIDLWGQGKLVTVSS
VL: EIVLTQSPGTLSLSPGERATLSCRASQSISSTYLVWYQQKPGQAPRLLIYAASYRATGIPDRFSGSGSGTDFILTISRLEPEDFAVYYCQQYGSSLTFGGGTKVEIKR
notes: VH/VL tied via antigen in summary, not by name in this stretch
binding result [2]: binds

binding result [3]: binds
B2: TTES1010 (antibody, V domains shown)
VH: EVQLVESGGGLVQPGGSLRLSCAASGFTFSSYSMNWVRQAPGKGLEWVSYISSSSSTIYYADSVKGRFTISRDNAKNSLYLQMNSLRAEDTAVYYCASLLGGDPDYWGQGTLVTVSS
VL: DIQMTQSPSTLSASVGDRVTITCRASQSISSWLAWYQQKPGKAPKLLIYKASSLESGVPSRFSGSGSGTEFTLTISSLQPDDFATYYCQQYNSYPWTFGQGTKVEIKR

binding result [4]: binds
binding result [5]: binds
B3: TLUS1006 (antibody, V domains shown)
VH: PVHLVQSGAEVRKPGSSVKVSCMASGGSFNTYAVNWVRQAPGQGLEWMGGIIPVFGTTNYAPRFQGRVTITADESTSTVYMELTSLTSEDTAVYYCARDRDSGYERNCLDPWGQGTLVTVSS
VL: DIVMTQSPDSLAVTLGERATINCRSSQTVLYDSNNKNYLAWYQQKPGQPPKLLIYWASIRESGVPDRFSGSGSGTDFTLTINTLQAEDVAIYFCQQYFTTPRTFGQGTKVEIKR
notes: as for B1

binding result [6]: binds
B4: TMEL1017 (antibody, V domains shown)
VH: EVQLVESGGGLVKPGGSLRLSCAASGFTFSNYNMNWVRQAPGKGLEWVSSISSSSSYIYYADSVKGRFTISRDNAKNSLYLQMNSLRAEDTAVYYCARDALDFDWLLSAGGFDYWGQGTLVTVSS
VL: ASALTQPASVSGSPGQSITISCTGTSSDVGGYNYVSWYQQHPGKAPKLMIYEVSNRPSGVSNRFSGSKSGNTASLTISGLQAEDEADYYCSSYTSSSTLVFGGGTKLTVLG
notes: as for B1

binding result [7]: binds
B5: TLUA1016 (antibody, V domains shown)
VH: EVQLLESGGALVQPGGSLRLSCAVSGLTFNRFAMTWVRQAPGKGLEWVSHIGGSGGYTYYADSVKGRFTISRDNSKNTLYLQMNSLRAEDTAVYHCVKLKGIGAMWTYAMDVWGQGTTVTVSS
VL: QSVLTQPPSVSGAPGQRVTIPCTGSSSNLGAGYAVHWYQQLPATTPKLLIYANSSRPSGVPDRFSGSRSDTSASLAITGLQAEDEADYYCQSYDSSLSGYVFGTGTWVTVLS
notes: as for B1

binding result [8]: binds
B6: TBLA1010 (antibody, V domains shown)
VH: EVQLVESGGGLVQPGRSLRLSCAASGFPFGDYAMHWVRQAPGKGLEWVSGIGWDSGGIGYADSVKGRFTISRDIAKNSLYLEINSLRPDDTALYYCAKAAATLPYFRFAMDVWGQGTPVTVSS
VL: EIVLTQSPGTLSLSPGERATLSCRASQSVSSSYLAWYQQKPGQAPRLLIFGASTRASGIPDRFSGRGSGTEFTLTISRLEPEDFAVYYCQQYDSSPFTFGPGTKVEIKR
notes: VH/VL only

binding result (annexin A1): binds
B7: TLUA1004 (antibody, V domains shown)
VH: EVQLVESGGGLVQTGGSLRLSCSASGFTFNNYWMHWVRQAPGKGLLWLSRINTDGSRGHYDDSVQGRFTISRDNAKQTVYLQMDGLRAEDTAVYFCARDGYDFRAFDHWGQGVLVTVSS
VL: DIQMTQSPSSLSASVGDKVTMTCRASQFISVYVNWYQQKPGKAPKLLIYTASSLESGVSSRFSGGGSGTDFTLTIRSLQPEDFAIYYCQQTYSTPWTFGPGTRVEIKR
notes: as for B1

binding result [9]: binds
B8: TLUS1003 (antibody, V domains shown)
VH: QVHLVQSGSEFKKPGASVKISCKTSGYTFTNYAMNWVRQAPGQGLEWVGWINTVTGIPGYAQGFTGRFIISLDTSGRTSYLQINSLQAEDTAVYYCARSGGFGWSRDLDYWGQGTLVTVSS
VL: DIVLTQSPLSLPVTPGEPASISCRSSQSLLHSNGVYYLDWYLLKPGQSPQLVIYMGSSRASGVPDRFSGSGSGTDFRLKISRVEAEDVGIYYCMQALQTPWTFGQGTKVEIKR
notes: as for B1

binding result [3]: binds
B9: TTES1001 (antibody, V domains shown)
VH: PVQLVQSGAEVKKPGSSVQVSCKGSGGTFSEYGISWLRQAPGQGLEWIGGIIPVLGIPNYAQKFRGRVTITADESTGSAYMEVSSLRSEDTAVYYCAREGLRLARGWFHPWGQGTLVTVTS
VL: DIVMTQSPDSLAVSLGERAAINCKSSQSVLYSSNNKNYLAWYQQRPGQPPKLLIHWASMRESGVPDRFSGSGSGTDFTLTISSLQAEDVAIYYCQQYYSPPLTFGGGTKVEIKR
